# Values of other authors as cited in PMC4344624.
# Molecular target: VPg (Turnip mosaic virus) (UniProt P89509)
# UniProt P89509, sequence (P89509 1925-2116): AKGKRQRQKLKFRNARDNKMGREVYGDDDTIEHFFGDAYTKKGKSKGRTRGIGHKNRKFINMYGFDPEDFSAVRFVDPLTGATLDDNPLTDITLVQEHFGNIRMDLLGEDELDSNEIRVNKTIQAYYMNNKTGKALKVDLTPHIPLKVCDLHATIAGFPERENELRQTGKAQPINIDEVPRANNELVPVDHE
substance,measurement,value
Pokeweed antiviral protein (from UniProt P10297),Kd,29 nM
